How the values were obtained:
HeLa Kyoto [1] = experiment: solubility in G1/S (NP-40 vs SDS abundance) (log2 ratio); higher = more soluble; conditions: cell cycle stage: G1/S
HeLa Kyoto [2] = experiment: thermal stability score vs G1/S (z-score of summed log2 fold changes over temperatures); higher = more thermally stable than in G1/S
HeLa Kyoto [3] = experiment: solubility change mitosis vs G1/S (difference of NP-40 vs SDS log2 ratios) (log2 ratio difference); higher = more soluble in mitosis
HeLa Kyoto [4] = experiment: melting temperature (median over replicates), in situ; higher = more thermally stable
[5] = cell cycle stage: early G1 (4.5 h after nocodazole release)
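For melting temperature (median over replicates), in situ in this document: HeLa Kyoto cells synchronized by double thymidine or nocodazole block, proteins quantified by TMT10plex mass spectrometry, three independent biological replicates.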
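For solubility change mitosis vs G1/S (difference of NP-40 vs SDS log2 ratios) in this document: synchronized HeLa Kyoto cells (double thymidine block for G1/S, nocodazole release for mitosis), protein amounts in NP-40 versus SDS lysates quantified by mass spectrometry, three biological replicates.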
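For solubility in G1/S (NP-40 vs SDS abundance) in this document: HeLa Kyoto cells arrested at G1/S by double thymidine block, proteins quantified by TMT10plex mass spectrometry in mild NP-40 versus SDS extracts, three biological replicates.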
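For thermal stability score vs G1/S (z-score of summed log2 fold changes over temperatures) in this document: synchronized HeLa Kyoto cells, proteins quantified by TMT10plex mass spectrometry, three biological replicates, mitosis taken 0.5 h after nocodazole release, G1/S directly after double thymidine block.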

Substance | solubility in G1/S (log2) (HeLa Kyoto [1]) | thermal stability score (HeLa Kyoto [2]; [5]) | thermal stability score (HeLa Kyoto [2]; cell cycle stage: mitosis) | solubility change mitosis (log2) (HeLa Kyoto [3]) | melting temperature (HeLa Kyoto [4]; cell cycle stage: G1/S) [°C] | melting temperature (HeLa Kyoto [4]; cell cycle stage: mitosis) [°C]
MAYNDTDRNQTEKLLKRVRELEQEVQRLKKEQAKNKEDSNIRENSAGAGKTKRAFDFSAHGRRHVALRIAYMGWGYQGFASQENTNNTIEEKLFEALTKTRLVESRQTSNYHRCGRTDKGVSAFGQVISLDLRSQFPRGRDSEDFNVKEEANAAAEEIRYTHILNRVLPPDIRILAWAPVEPSFSARFSCLERTYRYFFPRADLDIVTMDYAAQKYVGTHDFRNLCKMDVANGVINFQRTILSAQVQLVGQSPGEGRWQEPFQLCQFEVTGQAFLYHQVRCMMAILFLIGQGMEKPEIIDELLNIEKNPQKPQYSMAVEFPLVLYDCKFENVKWIYDQEAQEFNITHLQQLWANHAVKTHMLYSMLQGLDTVPVPCGIGPKMDGMTEWGNVKPSVIKQTSAFVEGVKMRTYKPLMDRPKCQGLESRIQHFVRRGRIEHPHLFHEEETKAKRDCNDTLEEENTNLETPTKRVCVDTEIKSII [PUS3] | 0.0227 | 0.0981 | -0.181 | -0.169 | 51.6 | 52.7
MGRIFLDHIGGTRLFSCANCDTILTNRSELISTRFTGATGRAFLFNKVVNLQYSEVQDRVMLTGRHMVRDVSCKNCNSKLGWIYEFATEDSQRYKEGRVILERALVRESEGFEEHVPSDNS [YPEL5] | 0.00475 | 0.121 | -0.0508 | -0.00616 | 50.7 | 52.5
MSVGFIGAGQLAFALAKGFTAAGVLAAHKIMASSPDMDLATVSALRKMGVKLTPHNKETVQHSDVLFLAVKPHIIPFILDEIGADIEDRHIVVSCAAGVTISSIEKKLSAFRPAPRVIRCMTNTPVVVREGATVYATGTHAQVEDGRLMEQLLSSVGFCTEVEEDLIDAVTGLSGSGPAYAFTALDALADGGVKMGLPRRLAVRLGAQALLGAAKMLLHSEQHPGQLKDNVSSPGGATIHALHVLESGGFRSLLINAVEASCIRTRELQSMADQEQVSPAAIKKTILDKVKLDSPAGTALSPSGHTKLLPRSLAPAGKD [PYCR1] | 0.208 | 0.0884 | -3.11 | -0.0764 | 54.9 | 53.7
FNDC3B | -0.0341 | 1.73 | 3.59 | 0.0529 | 47.9 | 50.5
MSSDASQGVITTPPPPSMPHKERYFDRINENDPEYIRERNMSPDLRQDFNMMEQRKRVTQILQSPAFREDLECLIQEQMKKGHNPTGLLALQQIADYIMANSFSGFSSPPLSLGMVTPINDLPGADTSSYVKGEKLTRCKLASLYRLVDLFGWAHLANTYISVRISKEQDHIIIIPRGLSFSEATASNLVKVNIIGEVVDQGSTNLKIDHTGFSPHAAIYSTRPDVKCVIHIHTLATAAVSSMKCGILPISQESLLLGDVAYYDYQGSLEEQEERIQLQKVLGPSCKVLVLRNHGVVALGETLEEAFHYIFNVQLACEIQVQALAGAGGVDNLHVLDFQKYKAFTYTVAASGGGGVNMGSHQKWKVGEIEFEGLMRTLDNLGYRTGYAYRHPLIREKPRHKSDVEIPATVTAFSFEDDTVPLSPLKYMAQRQQREKTRWLNSPNTYMKVNVPEESRNGETSPRTKITWMKAEDSSKVSGGTPIKIEDPNQFVPLNTNPNEVLEKRNKIREQNRYDLKTAGPQSQLLAGIVVDKPPSTMQFEDDDHGPPAPPNPFSHLTEGELEEYKRTIERKQQGLEDAEQELLSDDASSVSQIQSQTQSPQNVPEKLEENHELFSKSFISMEVPVMVVNGKDDMHDVEDELAKRVSRLSTSTTIENIEITIKSPEKIEEVLSPEGSPSKSPSKKKKKFRTPSFLKKNKKKEKVEA [ADD3] | -0.181 | -4.93 | -3.64 | 0.481 | 55.9 | 55.5
MEDFARGAASPGPSRPGLVPVSIIGAEDEDFENELETNSEEQNSQFQSLEQVKRRPAHLMALLQHVALQFEPGPLLCCLHADMLGSLGPKEAKKAFLDFYHSFLEKTAVLRVPVPPNVAFELDRTRADLISEDVQRRFVQEVVQSQQVAVGRQLEDFRSKRLMGMTPWEQELAQLEAWVGRDRASYEARERHVAERLLMHLEEMQHTISTDEEKSAAVVNAIGLYMRHLGVRTKSGDKKSGRNFFRKKVMGNRRSDEPAKTKKGLSSILDAARWNRGEPQVPDFRHLKAEVDAEKPGATDRKGGVGMPSRDRNIGAPGQDTPGVSLHPLSLDSPDREPGADAPLELGDSSPQGPMSLESLAPPESTDEGAETESPEPGDEGEPGRSGLELEPEEPPGWRELVPPDTLHSLPKSQVKRQEVISELLVTEAAHVRMLRVLHDLFFQPMAECLFFPLEELQNIFPSLDELIEVHSLFLDRLMKRRQESGYLIEEIGDVLLARFDGAEGSWFQKISSRFCSRQSFALEQLKAKQRKDPRFCAFVQEAESRPRCRRLQLKDMIPTEMQRLTKYPLLLQSIGQNTEEPTEREKVELAAECCREILHHVNQAVRDMEDLLRLKDYQRRLDLSHLRQSSDPMLSEFKNLDITKKKLVHEGPLTWRVTKDKAVEVHVLLLDDLLLLLQRQDERLLLKSHSRTLTPTPDGKTMLRPVLRLTSAMTREVATDHKAFYVLFTWDQEAQIYELVAQTVSERKNWCALITETAGSLKVPAPASRPKPRPSPSSTREPLLSSSENGNGGRETSPADARTERILSDLLPFCRPGPEGQLAATALRKVLSLKQLLFPAEEDNGAGPPRDGDGVPGGGPLSPARTQEIQENLLSLEETMKQLEELEEEFCRLRPLLSQLGGNSVPQPGCT [ARHGEF1] | 0.0626 | 1.08 | 1.58 | -0.134 | 49.2 | 49.1
MDRSSKRRQVKPLAASLLEALDYDSSDDSDFKVGDASDSEGSGNGSEDASKDSGEGSCSDSEENILEEELNEDIKVKEEQLKNSAEEEVLSSEKQLIKMEKKEEEENGERPRKKKEKEKEKEKEKEKEKEREKEKEKATVSENVAASAAATTPATSPPAVNTSPSVPTTTTATEEQVSEPKKWNLRRNRPLLDFVSMEELNDMDDYDSEDDNDWRPTVVKRKGRSASQKEGSDGDNEDDEDEGSGSDEDENDEGNDEDHSSPASEGGCKKKKSKVLSRNSADDEELTNDSLTLSQSKSNEDSLILEKSQNWSSQKMDHILICCVCLGDNSEDADEIIQCDNCGITVHEGCYGVDGESDSIMSSASENSTEPWFCDACKCGVSPSCELCPNQDGIFKETDAGRWVHIVCALYVPGVAFGDIDKLRPVTLTEMNYSKYGAKECSFCEDPRFARTGVCISCDAGMCRAYFHVTCAQKEGLLSEAAAEEDIADPFFAYCKQHADRLDRKWKRKNYLALQSYCKMSLQEREKQLSPEAQARINARLQQYRAKAELARSTRPQAWVPREKLPRPLTSSASAIRKLMRKAELMGISTDIFPVDNSDTSSSVDGRRKHKQPALTADFVNYYFERNMRMIQIQENMAEQKNIKDKLENEQEKLHVEYNKLCESLEELQNLNGKLRSEGQGIWALLGRITGQKLNIPAILRAPKERKPSKKEGGTQKTSTLPAVLYSCGICKKNHDQHLLLLCDTCKLHYHLGCLDPPLTRMPRKTKNSYWQCSECDQAGSSDMEADMAMETLPDGTKRSRRQIKEPVKFVPQDVPPEPKKIPIRNTRTRGRKRSFVPEEEKHEERVPRERRQRQSVLQKKPKAEDLRTECATCKGTGDNENLVRCDECRLCYHFGCLDPPLKKSPKQTGYGWICQECDSSSSKEDENEAERKNISQELNMEQKNPKK [PHF14] | -1.13 | -0.0393 | 2.42 | 0.708 |  | 50.1
MLLPAPALRRALLSRPWTGAGLRWKHTSSLKVANEPVLAFTQGSPERDALQKALKDLKGRMEAIPCVVGDEEVWTSDVQYQVSPFNHGHKVAKFCYADKSLLNKAIEAALAARKEWDLKPIADRAQIFLKAADMLSGPRRAEILAKTMVGQGKTVIQAEIDAAAELIDFFRFNAKYAVELEGQQPISVPPSTNSTVYRGLEGFVAAISPFNFTAIGGNLAGAPALMGNVVLWKPSDTAMLASYAVYRILREAGLPPNIIQFVPADGPLFGDTVTSSEHLCGINFTGSVPTFKHLWKQVAQNLDRFHTFPRLAGECGGKNFHFVHRSADVESVVSGTLRSAFEYGGQKCSACSRLYVPHSLWPQIKGRLLEEHSRIKVGDPAEDFGTFFSAVIDAKSFARIKKWLEHARSSPSLTILAGGKCDDSVGYFVEPCIVESKDPQEPIMKEEIFGPVLSVYVYPDDKYKETLQLVDSTTSYGLTGAVFSQDKDVVQEATKVLRNAAGNFYINDKSTGSIVGQQPFGGARASGTNDKPGGPHYILRWTSPQVIKETHKPLGDWSYAYMQ [ALDH4A1] | 0.0698 | -0.222 | -0.434 | -0.0143 | 51.8 | 50.7
MMGRSPGFAMQHIVGVPHVLVRRGLLGRDLFMTRTLCSPGPSQPGEKRPEEVALGLHHRLPALGRALGHSIQQRATSTAKTWWDRYEEFVGLNEVREAQGKVTEAEKVFMVARGLVREAREDLEVHQAKLKEVRDRLDRVSREDSQYLELATLEHRMLQEEKRLRTAYLRAEDSEREKFSLFSAAVRESHEKERTRAERTKNWSLIGSVLGALIGVAGSTYVNRVRLQELKALLLEAQKGPVSLQEAIREQASSYSRQQRDLHNLMVDLRGLVHAAGPGQDSGSQAGSPPTRDRDVDVLSAALKEQLSHSRQVHSCLEGLREQLDGLEKTCSQMAGVVQLVKSAAHPGLVEPADGAMPSFLLEQGSMILALSDTEQRLEAQVNRNTIYSTLVTCVTFVATLPVLYMLFKAS [CCDC51] | 0.273 | 0.333 | 0.178 | -0.0792 | 53.5 | 52.7
MMKFRFRRQGADPQREKLKQELFAFNKTVEHGFPNQPSALAFDPELRIMAIGTRSGAVKIYGAPGVEFTGLHRDAATVTQMHFLTGQGRLLSLLDDSSLHLWEIVHHNGCAHLEEALSFQLPSRPGFDGASAPLSLTRVTVVLLVAASDIAALGTEGSSVFFLDVTTLTLLEGQTLAPGEVLRSVPDDYRCGKALGPVESLQGHLRDPTKILIGYSRGLLVIWNQASQCVDHIFLGNQQLESLCWGRDSSTVVSSHSDGSYAVWSVDAGSFPTLQPTVATTPYGPFPCKAINKILWRNCESGGHFIIFSGGMPRASYGDRHCVSVLRAETLVTLDFTSRIIDFFTVHSTRPEDEFDDPQALAVLLEEELVVLDLQTPGWPAVPAPYLAPLHSSAITCSAHVASVPAKLWARIVSAGEQQSPQPVSSALSWPITGGRNLAQEPSQRGLLLTGHEDGTVRFWDASGVALRPLYKLSTAGLFQTDCEHADSLAQAAEDDWPPFRKVGCFDPYSDDPRLGVQKVALCKYTAQMVVAGTAGQVLVLELSDVPVEQAVSVAIIDLLQDREGFTWKGHERLSPRTGPLPWPAGFQPRVLVQCLPPAAVTAVTLHTEWSLVAFGTSHGFGLFDYQRKSPVLARCTLHPNDSLAMEGPLSRVKSLKKSLRQSFRRIRKSRVSGKKRAANASSKLQEANAQLAEQACPHDVEMTPVQRRIEPRSADDSLSGVVRCLYFADTFLRDGAHHGPTMWAGTNSGSVFAYALEVPAAAVGGEKRPEQAVEAVLGKEVQLMHRAPVVAIAVLDGRGRPLPEPYEASRDLAQAPDMQGGHAVLIASEEQFKVFTLPKVSAKTKFKLTAHEGCRVRKVALATFASVACEDYAETCLACLTNLGDVHVFSVPGLRPQVHYSCIRKEDISGIASCVFTRHGQGFYLISPSEFERFSLSARNITEPLCSLDINWPRDATQASYRIRESPKLSQANGTPSILLAPQSLDGSPDPAHSMGPDTPEPPEAALSPMSIDSATSADTTLDTTGDVTVEDVKDFLGSSEESEKNLRNLAEDEAHACAILIK [LLGL1] | 0.0124 | -0.436 | -0.753 | -0.209 | 50.9 | 49.7
MEQPGQDPTSDDVMDSFLEKFQSQPYRGGFHEDQWEKEFEKVPLFMSRAPSEIDPRENPDLACLQSIIFDEERSPEEQAKTYKDEGNDYFKEKDYKKAVISYTEGLKKKCADPDLNAVLYTNRAAAQYYLGNFRSALNDVTAARKLKPCHLKAIIRGALCHLELKHFAEAVNWCDEGLQIDAKEKKLLEMRAKADKLKRIEQRDVRKANLKEKKERNQNEALLQAIKARNIRLSEAACEDEDSASEGLGELFLDGLSTENPHGARLSLDGQGRLSWPVLFLYPEYAQSDFISAFHEDSRFIDHLMVMFGETPSWDLEQKYCPDNLEVYFEDEDRAELYRVPAKSTLLQVLQHQRYFVKALTPAFLVCVGSSPFCKNFLRGRKVYQIR [TTC4] | 0.484 | -0.209 | 0.287 | -0.0862 | 49.8 | 49.4

— the supplement of paper PMC5998384
